Experimental data reported in patent US20250066499A1 (SUNSHINE GUOJIAN PHARMACEUTICAL SHANGHAI, published 2025).

T1: CD73 protein on the surface of tumor cells (human, UniProt P21589 27-549)
T1 sequence (looked up): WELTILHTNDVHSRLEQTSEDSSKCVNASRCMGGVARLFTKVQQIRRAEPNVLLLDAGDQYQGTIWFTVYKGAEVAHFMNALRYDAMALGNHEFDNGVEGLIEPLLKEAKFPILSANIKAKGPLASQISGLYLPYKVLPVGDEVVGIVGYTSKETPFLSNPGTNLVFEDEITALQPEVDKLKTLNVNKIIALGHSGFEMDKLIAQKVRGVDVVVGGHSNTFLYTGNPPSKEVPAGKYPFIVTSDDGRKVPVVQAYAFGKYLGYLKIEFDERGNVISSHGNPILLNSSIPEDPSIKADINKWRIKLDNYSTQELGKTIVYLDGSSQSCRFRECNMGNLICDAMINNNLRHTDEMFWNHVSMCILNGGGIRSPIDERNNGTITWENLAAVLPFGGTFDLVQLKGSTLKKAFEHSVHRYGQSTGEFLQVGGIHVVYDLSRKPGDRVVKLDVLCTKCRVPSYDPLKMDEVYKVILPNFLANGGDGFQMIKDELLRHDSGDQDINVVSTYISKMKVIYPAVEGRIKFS

T2: cynomolgus monkey CD73 protein (cynomolgus monkey, UniProt A0A2K5V5U7 27-547)
T2 construct: Bought protein; also called CD73-cynomolgus monkey
T2 sequence: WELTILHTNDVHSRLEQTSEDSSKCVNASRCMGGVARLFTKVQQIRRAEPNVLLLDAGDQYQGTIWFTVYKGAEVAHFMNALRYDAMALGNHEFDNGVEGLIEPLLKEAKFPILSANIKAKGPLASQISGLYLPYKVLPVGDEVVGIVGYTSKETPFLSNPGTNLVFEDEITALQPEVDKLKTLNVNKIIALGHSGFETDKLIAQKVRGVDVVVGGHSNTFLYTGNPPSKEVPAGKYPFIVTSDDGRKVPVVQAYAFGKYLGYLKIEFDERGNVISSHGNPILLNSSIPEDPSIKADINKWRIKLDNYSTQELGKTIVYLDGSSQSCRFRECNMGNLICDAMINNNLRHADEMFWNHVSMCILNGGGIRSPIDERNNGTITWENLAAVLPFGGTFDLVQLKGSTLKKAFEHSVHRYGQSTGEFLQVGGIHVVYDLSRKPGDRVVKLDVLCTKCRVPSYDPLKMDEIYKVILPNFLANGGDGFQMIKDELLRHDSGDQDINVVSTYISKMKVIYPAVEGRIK

T3: human CD73-His protein (human, UniProt P21589 27-549)
T3 construct: Expressed in HEK-293F with a signal peptide that is not specified; In the ELISAs it was biotinylated with EZ-Link NHS-Biotin (CD73-biotin) and captured on streptavidin; in SPR and the enzyme assay it was used as CD73-His; also called CD73-his antigen; CD73-biotin
T3 sequence: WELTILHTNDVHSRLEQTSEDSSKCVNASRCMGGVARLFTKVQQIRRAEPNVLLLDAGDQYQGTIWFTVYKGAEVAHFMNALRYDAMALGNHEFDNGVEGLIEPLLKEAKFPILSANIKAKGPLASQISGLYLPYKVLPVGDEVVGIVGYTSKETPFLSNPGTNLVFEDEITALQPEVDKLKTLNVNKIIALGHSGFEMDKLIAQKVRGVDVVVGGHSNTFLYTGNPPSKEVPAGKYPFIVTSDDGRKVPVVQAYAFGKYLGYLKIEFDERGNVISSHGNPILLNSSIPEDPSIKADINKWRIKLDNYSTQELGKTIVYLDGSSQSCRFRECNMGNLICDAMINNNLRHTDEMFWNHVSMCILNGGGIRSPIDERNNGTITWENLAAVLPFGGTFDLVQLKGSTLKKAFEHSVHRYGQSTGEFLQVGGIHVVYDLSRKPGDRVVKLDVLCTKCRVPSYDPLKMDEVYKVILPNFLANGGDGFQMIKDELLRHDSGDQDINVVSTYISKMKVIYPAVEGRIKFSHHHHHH

B1: 48A11-HuV33 (antibody, human IgG4, V domains shown)
VH: QVQLVQSGAEVKKPGASVKVSCKASGYTFTSYWMHWVRQAPGQGLEWIGEINPSIGRTNYNEKFKSRVTLTRDTSTSTAYMELSSLRSEDTAVYYCARRVYGTMDYWGQGTLVTVSS
VL: DIQMTQSPSSLSASVGDRVTITCKASQDINSYLSWFQQKPGKSPKLLIYRANIWVDGVPSRFSGSGSGQDYTFTISSLQPEDIATYYCLQYDELYTFGQGTKVEIK
notes: Humanized
B2: 56B10-HuV31 (antibody, human IgG4, V domains shown)
VH: QVQLQQSGAEVKKPGASVKVSCKASGYTFTRYYIYWVRQRPGQGLEWIGWIYPGNFNTKYNEKFKGRATLTADTSASTAYMELSSLTSEDTAVYYCARDVYDYAGFAYWGQGTLVTVSS
VL: DIQLTQSPSFLSASVGDRVTITCKASQGVATAVAWYQQKPGQSPKLLIYWASTRHTGVPDRFSGSGSGTEFTLTISSLQPEDFATYYCQQYSSYPWTFGQGTKVEIK
notes: Humanized

How the values were obtained:
[1] = target: T1, CD73 protein on the surface of tumor …; experiment: cell-based or functional assay
[2] = target: T1, CD73 protein on the surface of tumor …; experiment: flow cytometry on H292 cells
Protocol: MDA-MB-231 cells (triple-negative breast cancer), H292 cells (human lung cancer cells), and A375 cells (human malignant melanoma cells), all in their logarithmic growth phase, were collected respectively. The cells were washed once with RPMI-1640 basic medium and then adjusted to a cell concentration of 2.0×10⁶ cells/mL in RPMI-1640 basic medium containing 1% BSA (antibody diluent). The antibodies to be tested were diluted in a 3-fold gradient using the antibody diluent, and 100 μL of each concentration of the test antibodies was mixed with 100 μL of cells in a 96-well cell culture plate and incubated at 4° C. for 1 hour (the maximum working concentration of the test antibodies was 500 nM, with 1×10⁵ target cells per well). The cells were washed twice with PBS to remove unbound test antibodies. Then, the cells were mixed with 200 μL of 5 μg/mL FITC-labeled goat anti-human IgG-Fc secondary antibody and incubated at 4° C. for 30 minutes. The cells were washed twice again with PBS to remove unbound secondary antibodies, and finally, the cells were resuspended in 200 μL of PBS. The binding affinity of the test antibodies to the cells was determined using a flow cytometer.

[3] = target: T2, cynomolgus monkey CD73 protein; experiment: SPR Biacore 8K, antibody captured on Protein A/G, antigen in flow
human CD73-His protein = target: T3, human CD73-His protein; experiment: SPR Biacore 8K, antibody captured on Protein A/G, CD73-his in flow, 1:1 model
Protocol: Antibodies to be tested were captured using a chip covalently coupled with Protein A/G, with the following operational parameters: antibody concentration of 2 μg/mL, contact time of 75 seconds, flow rate of 10 μL/min, and regeneration contact time of 30 seconds. The CD73-his antigen was diluted in HBS-EP pH 7.4 buffer, with the highest concentration being 100 nM, and diluted in a 2-fold gradient down to 0.78 nM. Duplicate wells and a 0 concentration point were set up. 6M guanidine hydrochloride solution was used as the regeneration buffer. Using the Biacore 8K, the samples were injected with the following parameters: binding time of 180 seconds, dissociation time of 900 seconds, flow rate of 30 μL/min, and regeneration contact time of 30 seconds. After the procedure was completed, the Biacore 8K Evaluation Software was used to analyze the data according to the “1:1 binding kinetics model,” yielding the binding kinetics parameters of each antibody to CD73.

Binder	IC50, inhibition of CD73 enzyme activity on A375 cells [1] [nM]	IC50, inhibition of CD73 enzyme activity on H292 cells [1] [nM]	IC50, inhibition of CD73 enzyme activity on MDA-MB-231 cells [1] [nM]	EC50 [2] [nM]	Kd [3] [nM]	koff [3] [s⁻¹]	kon [3] [M⁻¹ s⁻¹]	Kd (human CD73-His protein) [nM]	koff (human CD73-His protein) [s⁻¹]	kon (human CD73-His protein) [M⁻¹ s⁻¹]
B1	1.48	0.859	0.566	2.31	12.1	0.000883	72800	2.26	0.000381	168000
B2	1.34	0.818	0.61	2.55	7.13	0.000712	99900	1.89	0.000376	199000
